Results: US20210269525A1 (BIOCYTOGEN PHARMACEUTICALS BEIJING, published 2021)
Where a chain is given by its changes, count along the chain named.

B1: 10A4-H1K1-IgG1-LALA (antibody, V domains shown)
VH: QVQLVQSGAEVKKPGASVKVSCKASGYTFTSYYIHWVRQAPGQRLEFIGWIYPGNVNAKYNEKFKGRVTITTDKSASTAYMELSSLRSEDTAVYYCAIKGGNYDWGQGTLVTVSS
VL: DVVMTQSPLSLPVTLGQPASISCQSSQSLLDSDGKTYLNWLQQRPGQSPRRLIYLVSKLGSGVPDRFSGSGSGTDFTLKISRVEAEDVGVYYCWQGTHFPRTFGGGTKVEIK
notes: Humanized; human IgG1 with LALA mutations; also called H1K1 (humanized 10A4)
B2: 10A4-H1K2-IgG1-LALA (antibody, V domains shown)
VH: B1 VH
VL: B1 VL with V109L
notes: Humanized; human IgG1 with LALA mutations; also called H1K2 (humanized 10A4)
B3: 10A4-H2K3-IgG1-LALA (antibody, V domains shown)
VH: B1 VH with V20I, V68A
VL: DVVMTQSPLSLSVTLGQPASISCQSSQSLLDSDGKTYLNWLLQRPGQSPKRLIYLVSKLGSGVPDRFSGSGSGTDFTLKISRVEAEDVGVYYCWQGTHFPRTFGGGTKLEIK
notes: Humanized; human IgG1 with LALA mutations; also called H2K3 (humanized 10A4)
B4: 10A4-H2K1-IgG1-LALA (antibody, V domains shown)
VH: B1 VH with V20I, V68A
VL: B1 VL
notes: Humanized; human IgG1 with LALA mutations; also called H2K1 (humanized 10A4)
B5: 10A4-H1K3-IgG1-LALA (antibody, V domains shown)
VH: B1 VH
VL: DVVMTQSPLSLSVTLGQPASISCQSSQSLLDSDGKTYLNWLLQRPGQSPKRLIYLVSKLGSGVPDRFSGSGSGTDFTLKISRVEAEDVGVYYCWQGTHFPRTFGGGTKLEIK
notes: Humanized; human IgG1 with LALA mutations; also called H1K3 (humanized 10A4)
B6: 1B1-H3K1-IgG1-LALA (antibody, V domains shown)
VH: QVQLVQSGAEVKKPGASVKLSCKASGYTFTSYWMHWVRQRHGQGLEWIGNIYPDSGTTNYGEKFKTRVTLTVDTSTSTAYMELSSLRSEDTAVYYCTRDTSGQYYFDYWGQGTLVTVSS
VL: DIVMTQSPDSLAVSAGERATMNCKSSQSLLNSRTRKNYLAWYQHKPGQSPKLLIYWASTRESGVPDRFSGSGSGTDFTLTISSLQAEDVAVYYCVQSFSLRAFGGGTKVEIK
notes: Humanized; human IgG1 with LALA mutations; also called H3K1 (humanized 1B1)
B7: 1B1-H3K2-IgG1-LALA (antibody, V domains shown)
VH: B6 VH
VL: B6 VL with A19V
notes: Humanized; human IgG1 with LALA mutations; also called H3K2 (humanized 1B1)

These binders were tested against T1, human CD3e (T-cell surface glycoprotein CD3 epsilon chain) (human, UniProt P07766 23-207) (assay: cell-based or functional assay).

Row | Binder | EC50, luciferase of Jurkat-Luc-NFAT cells; antibody from supernatant [µg/mL] | EC50, luciferase of Jurkat-Luc-NFAT cells; purified antibody [µg/mL]
1 | B1 | 0.294 | 0.524
2 | B2 | 0.272 | 0.726
3 | B3 | 0.416 | 0.472
4 | B4 | 0.266 | 0.313
5 | B5 | 0.393 | 0.583

Biological target: T1, human CD3e (T-cell surface glycoprotein …)
Experiment: cell-based or functional assay
Remark: another data set of the same source

Row | Binder | EC50, luciferase of Jurkat-Luc-NFAT cells; antibody from supernatant [µg/mL]
6 | B6 | > 3.06
7 | B7 | > 3.08

What follows are binders tested against T2, Histidine-tagged human CD3e protein (human, UniProt P07766 23-126) (assay: SPR (Biacore), human CD3e).
T2 construct: also called hCD3e-His; not shown: His tag

Row | Binder | Kd [nM] | koff [s⁻¹] | kon [M⁻¹ s⁻¹]
8 | B1 | 1.86 | 0.000105 | 56300
9 | B2 | 2.14 | 0.000127 | 59300
10 | B3 | 1.38 | 8.85e-05 | 63900
11 | B4 | 1.84 | 0.000111 | 60500
12 | B5 | 2.21 | 0.000133 | 60200

Biological target: T2, Histidine-tagged human CD3e protein
Experiment: SPR (Biacore), human CD3e
Remark: another data set of the same source

Row | Binder | Kd [nM] | koff [s⁻¹] | kon [M⁻¹ s⁻¹]
13 | B6 | 1.37 | 0.000914 | 665000
14 | B7 | 2.96 | 0.00062 | 209000

The binders below were run against T3, Cynomolgus CD3 epsilon Protein, His Tag (Acrobiosystems, Cat #CDE-05226) (cynomolgus (Macaca fascicularis), UniProt Q95LI5 22-117) (assay: SPR (Biacore), cynomolgus CD3e His tag).
T3 construct: also called monkey CD3e; not shown: His tag
T3 sequence: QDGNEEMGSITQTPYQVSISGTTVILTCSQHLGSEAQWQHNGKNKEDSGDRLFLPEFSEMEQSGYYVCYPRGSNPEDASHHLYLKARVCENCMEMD
Protocol: The binding affinity of the anti-hCD3e antibodies with monkey CD3e (Cynomolgus CD3 epsilon Protein (SEQ ID NO: 39 AA Gln 22-Asp 117), His Tag, Acrobiosystems, Cat #CDE-05226) were also measured using surface plasmon resonance (SPR) using Biacore (Biacore, INC, Piscataway N.J.) by the methods as described in the examples.

Row | Binder | Kd [nM] | koff [s⁻¹] | kon [M⁻¹ s⁻¹]
15 | B1 | 13.2 | 0.000597 | 45200
16 | B2 | 5.18 | 0.000298 | 57500
17 | B3 | 9.12 | 0.000497 | 54500
18 | B4 | 4.66 | 0.000261 | 55900
19 | B5 | 11.8 | 0.000508 | 43100

Each binder was assayed against T1, human CD3e (T-cell surface glycoprotein …) (assay: flow cytometry, human PBMC, antibody 1 ug/mL, anti-human IgG Fc-Alexa Fluor647 (1:500), anti-hTcRβ-PerCP (1:30)).
Protocol: (§1) PBMC cells were collected from a human subject. After being thawed, the cells were cultured for 3-4 hours. The medium was then discarded, and the cells were resuspended in phosphate-buffered saline (PBS). The cell concentration was then adjusted to 2×10⁶/25 μl PBS.
(§2) A 96-well plate was prepared. 25 ul of cell suspension was added to each well. […] The cells and the antibodies were incubated. After centrifuge, the residues were discarded. The samples were washed again. 25 ul of PBS was then added to each well to resuspend cells.
(§3) Anti-human IgG Fc-Alexa Fluror647 (1:500) and anit-hTcRβ PerCP (1:30) were then added to each well. The cells and the antibodies were incubated and then the cells were washed again by PBS. 300 ul of PBS was then added to each well to resuspend the cells. FACS was performed.

Row | Binder | upper left quadrant, percent of cells AF647+ / hTcRβ-PerCP- [%] | upper right quadrant, percent of cells AF647+ / hTcRβ-PerCP+ [%]
20 | B1 | 11.9 | 77.6
21 | B2 | 13.5 | 75.8
22 | B3 | 14.9 | 74.2
23 | B4 | 11.6 | 76.8
24 | B5 | 11 | 79.2

What follows are binders tested against T1, human CD3e (T-cell surface glycoprotein …) (assay: flow cytometry, human PBMC, antibody 1 µg/mL, anti-human IgG Fc-Alexa Fluor647 (1:500), anti-hTcRβ-PerCP (1:30)).
Protocol: as §1, §2, §3

Row | Binder | upper left quadrant, percent of cells AF647+ / hTcRβ-PerCP- [%] | upper right quadrant, percent of cells AF647+ / hTcRβ-PerCP+ [%]
25 | B6 | 11 | 61.2
26 | B7 | 11.4 | 58.1

These binders were tested against T1, human CD3e (T-cell surface glycoprotein …) (assay: flow cytometry, human PBMC, antibody 10 µg/mL, anti-human IgG Fc-Alexa Fluor647 (1:500), anti-hTcRβ-PerCP (1:30)).
Protocol: as §1
A 96-well plate was prepared. 25 ul of cell suspension was added to each well. Anti-hCD3e antibodies with different combinations of humanized 1B1 heavy chain variants and humanized 1B1 light chain variants were diluted to 20 ug/ml (2×) in PBS, and were added to the 96-well plate. The cells and the antibodies were incubated. After centrifuge, the residues were discarded. The samples were washed again. 25 ul of PBS was then added to each well to resuspend cells.
as §3

Row | Binder | upper left quadrant, percent of cells AF647+ / hTcRβ-PerCP- [%] | upper right quadrant, percent of cells AF647+ / hTcRβ-PerCP+ [%]
27 | B6 | 7.75 | 65.2
28 | B7 | 9.23 | 62

Each binder was assayed against T1, human CD3e (T-cell surface glycoprotein …) (assay: flow cytometry, human PBMC, antibody 0.1 ug/mL, anti-human IgG Fc-Alexa Fluor647 (1:500), anti-hTcRβ-PerCP (1:30)).
Protocol: as §1, §2, §3

Row | Binder | upper left quadrant, percent of cells AF647+ / hTcRβ-PerCP- [%] | upper right quadrant, percent of cells AF647+ / hTcRβ-PerCP+ [%]
29 | B1 | 9.8 | 50.7
30 | B2 | 10.8 | 57.8
31 | B3 | 7.13 | 45.6
32 | B4 | 10.3 | 59.4
33 | B5 | 10.2 | 56.2

The binders below were run against T1, human CD3e (T-cell surface glycoprotein …) (assay: flow cytometry, human PBMC, antibody 0.1 µg/mL, anti-human IgG Fc-Alexa Fluor647 (1:500), anti-hTcRβ-PerCP (1:30)).
Protocol: as §1, §2, §3

Row | Binder | upper left quadrant, percent of cells AF647+ / hTcRβ-PerCP- [%] | upper right quadrant, percent of cells AF647+ / hTcRβ-PerCP+ [%]
34 | B6 | 11.8 | 55.5
35 | B7 | 10.2 | 57.7

The binders below were run against T1, human CD3e (T-cell surface glycoprotein …) (assay: flow cytometry, human PBMC, antibody 0.01 ug/mL, anti-human IgG Fc-Alexa Fluor647 (1:500), anti-hTcRβ-PerCP (1:30)).
Protocol: as §1, §2, §3

Row | Binder | upper left quadrant, percent of cells AF647+ / hTcRβ-PerCP- [%] | upper right quadrant, percent of cells AF647+ / hTcRβ-PerCP+ [%]
36 | B1 | 2.69 | 10.8
37 | B2 | 2.53 | 11.6
38 | B3 | 2.8 | 14.5
39 | B4 | 2.67 | 14.8
40 | B5 | 2.67 | 16.6

The binders below were run against T4, monkey CD3e (Macaca fascicularis) on PBMC (Macaca fascicularis, UniProt Q95LI5 22-198) (assay: flow cytometry, Macaca fascicularis PBMC, antibody concentration not given, anti-human IgG Fc-Alexa Fluor647 (1:500), anti-hTcRβ-PerCP (1:30)).
T4 construct: Target on PBMC from Macaca fascicularis; also called mfCD3e; monkey PBMC
Protocol: A 96-well plate was prepared. 25 ul of cell suspension was added to each well. Anti-hCD3 antibodies were added to the 96-well plate. The cells and the antibodies were incubated for 15 minutes at 4° C. 185 ul PBS was then added to each well. After centrifuge at 2000 rpm for 5 minutes, the medium was discarded. The samples were washed again. 25 ul of PBS was then added to resuspend cells.
Anti-human IgG Fc-Alexa Fluror647 (1:500) and anti-hTcRβ PerCP (1:30) were then added to each well. The cells and the antibodies were incubated for 15 minutes at 4° C. 185 ul PBS was then added to each well. After centrifuge, the residues were discarded. The samples were washed again. 25 ul of PBS was then added to resuspend cells. […] In contrast, anti-hTcRβ PerCP cannot bind to monkey PBMC.

Row | Binder | upper left quadrant, percent of cells AF647+ / hTcRβ-PerCP- [%] | upper right quadrant, percent of cells AF647+ / hTcRβ-PerCP+ [%]
41 | B6 | 78.8 | 18.3
42 | B7 | 89.5 | 7.53
43 | B1 | 48.4 | 2.33
44 | B2 | 47 | 2.56
45 | B3 | 51.1 | 2.59
46 | B4 | 49.4 | 2.32
47 | B5 | 46 | 1.54
